Experiments:
Experiment in all cases: immobilized peptide pulldown, SILAC LC-MS/MS
Details in all cases: reference: unphosphorylated peptide; sites Y595
Nck2 = Nck2 (UniProt O43639)
PLCγ1 = PLCγ1 (UniProt P19174)
SLP-76 = SLP-76 (UniProt Q13094)
Nck1 = Nck1 (UniProt P16333)

Measured: fold change

ADAP 586-600 (from UniProt O15117) pY595 peptide
stronger: Nck2 | PLCγ1 | SLP-76 | Nck1

From article PMC2908683
